From PMC12036459
Blank lines part the entries; values can stand above or below the substance they belong to.

Assays:
[1] = molecular target: tubulin (taxol-stabilized microtubules); assay: single-molecule TIRF on bare microtubules; conditions: reference: E. coli tau (non-phosphorylated)
tau (human 2N4R) [2] = molecular target: tau (human 2N4R) (UniProt P10636); assay: Hill coefficient of microtubule binding curve; conditions: reference: E. coli tau (non-phosphorylated)
[3] = molecular target: tau (human 2N4R) dGAE, 297-391 (UniProt P10636); assay: filament co-assembly, ultracentrifugation, SDS-PAGE
tau (human 2N4R) [4] = molecular target: tau (human 2N4R) (UniProt P10636); assay: single-molecule TIRF dwell time inside envelopes; conditions: reference: E. coli SNAP-tau (non-phosphorylated); sites T181,S198,S202,S210,T231,S235,S237,S352,S396,S404,S422
[5] = sites T181,S202,S210,T231,S235,S237,S241,S258,S262,T319,T373,T377,T403,S404
[6] = sites T181,S198,S202,S210,T231,S235,S237,S352,S396,S404,S422

tau (human 2N4R), sequence (P10636 whole entry, looked up, stated change not applied): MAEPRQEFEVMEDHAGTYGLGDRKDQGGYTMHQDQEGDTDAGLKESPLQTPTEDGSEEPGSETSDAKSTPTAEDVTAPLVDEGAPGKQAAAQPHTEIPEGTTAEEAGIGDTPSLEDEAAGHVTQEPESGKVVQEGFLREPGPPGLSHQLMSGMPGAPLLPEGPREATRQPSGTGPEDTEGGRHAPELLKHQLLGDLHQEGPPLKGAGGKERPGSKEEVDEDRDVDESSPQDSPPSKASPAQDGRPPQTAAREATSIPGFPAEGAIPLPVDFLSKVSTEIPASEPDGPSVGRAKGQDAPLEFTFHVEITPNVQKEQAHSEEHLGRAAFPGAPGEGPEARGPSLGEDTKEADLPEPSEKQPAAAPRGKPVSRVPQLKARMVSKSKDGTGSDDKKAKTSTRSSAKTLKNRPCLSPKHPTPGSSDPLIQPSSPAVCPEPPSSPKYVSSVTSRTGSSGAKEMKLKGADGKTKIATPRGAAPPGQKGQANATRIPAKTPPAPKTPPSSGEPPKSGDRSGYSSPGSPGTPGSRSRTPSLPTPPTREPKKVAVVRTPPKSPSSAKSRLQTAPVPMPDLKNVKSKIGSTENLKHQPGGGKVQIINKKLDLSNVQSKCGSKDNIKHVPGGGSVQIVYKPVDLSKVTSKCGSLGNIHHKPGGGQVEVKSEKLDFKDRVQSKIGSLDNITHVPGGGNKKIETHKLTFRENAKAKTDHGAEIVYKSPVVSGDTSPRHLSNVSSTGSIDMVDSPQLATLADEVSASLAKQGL

other: dwell time [1, 5]: weaker; reference ~ 4.3
other: Hill coefficient (tau (human 2N4R) [2]; [5]): same; reference 1.24
other: t1/2 of co-pelleting ([3]; reference: E. coli tau (non-phosphorylated), sites T181,S202,S210,T231,S235,S237,S241,S258,S262,T319,T373,T377,T403,S404): same; reference ~ 14
Substance: tau (human 2N4R) (from UniProt P10636-8) HEK tau

other: dwell time (tau (human 2N4R) [4]): weaker; reference ~ 6.06
Substance: tau (human 2N4R) (from UniProt P10636-8) Sf9 SNAP-tau

other: dwell time [1, 6]: weaker; reference ~ 4.3
other: Hill coefficient (tau (human 2N4R) [2]; [6]): stronger; reference 1.24
other: t1/2 of co-pelleting ([3]; reference: E. coli tau (non-phosphorylated), sites T181,S198,S202,S210,T231,S235,S237,S352,S396,S404,S422): stronger; reference ~ 14
other: t1/2 of co-pelleting ([3]; reference: HEK tau, sites S210,S422): stronger; reference ~ 12
Substance: tau (human 2N4R) (from UniProt P10636-8) Sf9 tau
